# Data: PMC4585561
# Target: VSD from KvAP (residues -12 to 136)
# Experiment: ITC; 350 uM VSTx1 titrated into 36 uM VSD in the cell, 25 °C, 10 mM PIPES-NaOH pH 6.5, 4 mM DM; single-site model
substance,measurement,value
VSTx1 (from UniProt P60980 30-63) (peptide),Kd,1500 nM
same,dH,-4.5 kcal/mol
same,stoichiometry N,0.97
